Experimental data: paper PMC5357137, “Target DNA bending by the Mu transpososome promotes careful transposition and prevents its reversal” (eLife, 2017)

Molecular target: the molecule itself
Assay: SEC; CDCs formed from a 2:1 mixture of MuA protein and Mu end DNA at 30°C for ≥1 hr; 25 mM HEPES pH 7.4, 200 mM NaCl, 5% glycerol, 0.6 mM Zwittergent 3-12, 0.5 mM EDTA, no Mg2+; Superdex 200 Increase 10/300; tetramer peak collected

B1: MuA transposase lacking domain Iα (residues 1–76) (enzyme)
chain: not shown
notes: MuA transposase of bacteriophage Mu; all constructs lacked domain Iα (residues 1-76); domain IIIβ (the C-terminal ~60 residues) is included; In the assay it stood with Mu end DNA fragments as the cleaved-donor complex (CDC); The crystal structure PDB 4FCY holds a shorter construct without domain IIIβ; also called MuA protein; WT
  stoichiometry N: 4
